The values that follow come from PMC6873181.

Read-outs that look alike come from different tables or passages of the source.

Holding throughout (settings): ligand
Test [1] concerns the target human IGF-1 receptor (human) (UniProt P08069).
Test [2] has as its target human insulin receptor isoform A (human) (UniProt P06213).
Test [3] concerns the target human IGF-1 receptor (human) (UniProt P08069). The source holds these as a separate data set.
The target of test [4] is human insulin receptor isoform A (human) (UniProt P06213). The source holds these as a separate data set.
For test [5] the target is unchanged. This is another data set of the same source.
Test [6] has as its target human IGF-1 receptor (human) (UniProt P08069). The source holds these as a separate data set.
For test [7] the target is unchanged. This is another data set of the same source.
The target in test [8] is human insulin receptor isoform A (human) (UniProt P06213). The source holds these as a separate data set.
Test [9] shares this target. The source holds these as a separate data set.
Test [10] has as its target human IGF-1 receptor (human) (UniProt P08069). This is another data set of the same source.

Chain of UniProt P06213 (P06213 other isoform, or with tags, fused parts or gaps): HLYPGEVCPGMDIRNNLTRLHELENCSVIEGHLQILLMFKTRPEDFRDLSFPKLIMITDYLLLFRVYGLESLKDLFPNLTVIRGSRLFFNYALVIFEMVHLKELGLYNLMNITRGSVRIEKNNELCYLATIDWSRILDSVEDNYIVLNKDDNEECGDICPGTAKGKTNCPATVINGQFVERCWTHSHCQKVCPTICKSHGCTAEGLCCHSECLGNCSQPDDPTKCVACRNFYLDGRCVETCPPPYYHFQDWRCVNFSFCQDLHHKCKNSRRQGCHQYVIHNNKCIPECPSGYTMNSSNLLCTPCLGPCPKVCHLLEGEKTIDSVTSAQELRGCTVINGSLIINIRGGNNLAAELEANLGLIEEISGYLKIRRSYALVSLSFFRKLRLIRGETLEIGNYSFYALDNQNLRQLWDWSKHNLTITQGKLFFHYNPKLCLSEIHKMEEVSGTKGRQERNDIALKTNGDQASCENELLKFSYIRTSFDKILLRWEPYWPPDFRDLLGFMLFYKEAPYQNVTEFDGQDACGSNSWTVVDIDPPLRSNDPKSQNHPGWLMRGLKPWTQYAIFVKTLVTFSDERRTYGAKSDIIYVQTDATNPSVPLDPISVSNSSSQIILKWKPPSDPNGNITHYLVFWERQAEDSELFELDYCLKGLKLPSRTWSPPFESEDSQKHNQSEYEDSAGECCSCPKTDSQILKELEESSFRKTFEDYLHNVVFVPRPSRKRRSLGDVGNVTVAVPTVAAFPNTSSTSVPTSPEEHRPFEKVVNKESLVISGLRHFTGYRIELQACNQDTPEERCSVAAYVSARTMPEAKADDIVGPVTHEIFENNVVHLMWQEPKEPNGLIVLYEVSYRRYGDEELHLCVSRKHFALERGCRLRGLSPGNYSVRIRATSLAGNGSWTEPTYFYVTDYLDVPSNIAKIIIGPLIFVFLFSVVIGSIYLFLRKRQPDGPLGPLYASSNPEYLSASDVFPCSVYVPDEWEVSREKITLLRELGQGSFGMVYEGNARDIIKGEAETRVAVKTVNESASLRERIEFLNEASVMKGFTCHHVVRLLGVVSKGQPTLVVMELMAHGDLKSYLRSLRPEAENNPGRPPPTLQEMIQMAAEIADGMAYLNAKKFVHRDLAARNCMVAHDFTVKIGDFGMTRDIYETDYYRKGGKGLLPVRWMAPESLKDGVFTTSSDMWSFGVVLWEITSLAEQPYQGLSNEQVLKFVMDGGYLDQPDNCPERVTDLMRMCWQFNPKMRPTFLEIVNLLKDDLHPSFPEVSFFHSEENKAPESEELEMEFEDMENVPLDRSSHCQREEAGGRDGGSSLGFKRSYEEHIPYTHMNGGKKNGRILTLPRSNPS

With “Asp-57–IGF-2 (from UniProt P01344 49-115)”, the Kd in [1] was found to be 0.5 nM; in test [2], 2.96 nM.
Consider “Thr-50–IGF-2 (from UniProt P01344 49-115)”, for which the figures for the Kd in test [3] and in test [4] were 0.84 nM and 2.7 nM, respectively.
With “His-50–IGF-2 (from UniProt P01344 49-115)”, the Kd in test [5] turned out to be 2.1 nM; in test [6], 1.6 nM.
As to “His-53–IGF-2 (from UniProt P01344 49-115)”, the Kd worked out at 1.2 nM in test [7] and 4.1 nM in test [8].
Take “Val-53–IGF-2 (from UniProt P01344 49-115)”: the Kd is 2.9 nM in [9] and 1.5 nM in [10].

As a reminder, the Kd is a measure of binding affinity in units of concentration. A lower Kd goes with tighter binding.
